Columns and labels:
Assay in all cases: pull-down
Maf1-id L318S/W319S = target: T1, Maf1-id L318S/W319S (S. cerevisiae, UniProt P41910 1-395, Δ64-194 | L318S | W319S)
T1 sequence (looked up): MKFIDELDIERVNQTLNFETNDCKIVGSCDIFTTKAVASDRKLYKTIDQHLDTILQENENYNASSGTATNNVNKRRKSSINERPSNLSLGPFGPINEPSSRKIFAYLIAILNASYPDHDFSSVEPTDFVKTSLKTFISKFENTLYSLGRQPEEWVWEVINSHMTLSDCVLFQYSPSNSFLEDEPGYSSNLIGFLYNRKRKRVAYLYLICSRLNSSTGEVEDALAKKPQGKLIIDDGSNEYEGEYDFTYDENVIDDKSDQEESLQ

Maf1-id D248A/D250A = target: T2, Maf1-id D248A/D250A (S. cerevisiae, UniProt P41910 1-395, Δ64-194 | D248A | D250A)
T2 sequence (looked up): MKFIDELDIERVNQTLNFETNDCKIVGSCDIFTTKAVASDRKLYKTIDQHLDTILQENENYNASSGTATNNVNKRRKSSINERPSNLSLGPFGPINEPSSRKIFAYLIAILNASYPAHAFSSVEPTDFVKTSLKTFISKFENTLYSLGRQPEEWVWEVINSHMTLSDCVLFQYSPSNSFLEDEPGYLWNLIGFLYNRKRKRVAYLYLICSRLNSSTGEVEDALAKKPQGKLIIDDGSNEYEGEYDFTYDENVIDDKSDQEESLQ

Maf1-id (Maf1 Δ64-194) = target: T3, Maf1-id (Maf1 Δ64-194) (S. cerevisiae, UniProt P41910 1-395, Δ64-194)
T3 sequence (looked up): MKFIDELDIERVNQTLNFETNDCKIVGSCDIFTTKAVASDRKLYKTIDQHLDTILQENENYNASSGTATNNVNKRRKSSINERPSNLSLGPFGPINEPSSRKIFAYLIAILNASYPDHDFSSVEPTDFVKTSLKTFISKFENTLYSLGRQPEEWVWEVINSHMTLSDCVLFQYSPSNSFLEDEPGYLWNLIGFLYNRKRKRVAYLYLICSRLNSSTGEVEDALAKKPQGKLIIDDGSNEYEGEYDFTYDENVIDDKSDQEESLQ

Maf1-id T33E/T34E = target: T4, Maf1-id T33E/T34E (S. cerevisiae, UniProt P41910 1-395, Δ64-194 | T33E | T34E)
T4 sequence (looked up): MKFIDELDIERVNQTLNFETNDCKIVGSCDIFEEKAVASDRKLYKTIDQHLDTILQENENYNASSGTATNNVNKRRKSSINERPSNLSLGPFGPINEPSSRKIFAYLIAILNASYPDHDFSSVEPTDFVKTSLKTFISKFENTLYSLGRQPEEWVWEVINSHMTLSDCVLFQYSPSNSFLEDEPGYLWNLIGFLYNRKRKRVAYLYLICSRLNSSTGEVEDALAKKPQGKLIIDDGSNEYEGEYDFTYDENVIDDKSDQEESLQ

Measured: binding result

B1: C34 1-156 (the two N-terminal C34 WH domains), His-tagged (domain or fragment, S. cerevisiae, UniProt P32910 1-156, looked up)
chain: MSGMIENGLQLSDNAKTLHSQMMSKGIGALFTQQELQKQMGIGSLTDLMSIVQELLDKNLIKLVKQNDELKFQGVLESEAQKKATMSAEEALVYSYIEASGREGIWSKTIKARTNLHQHVVLKCLKSLESQRYVKSVKSVKFPTRKIYMLYSLQPS
binds: Maf1-id L318S/W319S | Maf1-id D248A/D250A | Maf1-id (Maf1 Δ64-194) | Maf1-id T33E/T34E

Reference: article doi:10.1101/859132 (bioRxiv, 2019)
